Assay results taken from the supplement of paper PMC9112550, “Optimization of the antimicrobial peptide Bac7 by deep mutational scanning” (BMC Biology, 2022).

Tested on: Escherichia coli TOP10
Experiment: shrunken log2 fold change of peptide-encoding DNA abundance (4.5 h post-induction vs induction); higher = less antimicrobial activity (less host growth inhibition)
Details: time post-induction: 4.5 h; library: site-saturation at positions 5, 18, 19, 20
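Also: peptides expressed intracellularly from a pBAD plasmid library in pooled LB shake-flask culture, induced with 0.3% L-arabinose, DNA abundance read by NGS, three biological replicates, DESeq2 with apeglm shrinkage.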

| Sequence | shrunken log2 fold change |
| --- | --- |
| RRIRFRPPRLPRPRPRPRMRPRP | 0.608 |
| RRIRDRPPRLPRPRPRPQAMPRP | 0.133 |
| RRIRIRPPRLPRPRPRPEEVPRP | -0.00172 |
| RRIRERPPRLPRPRPRPSQIPRP | 0.012 |
| RRIRPRPPRLPRPRPRPHKWPRP | -0.216 |
| RRIRNRPPRLPRPRPRPTHLPRP | 0.109 |
| RRIRGRPPRLPRPRPRPDFRPRP | -0.043 |
| RRIRSRPPRLPRPRPRPTYKPRP | -0.495 |
| RRIRWRPPRLPRPRPRPEMPPRP | 0.364 |
| RRIRHRPPRLPRPRPRPLVSPRP | 0.0121 |
| RRIRTRPPRLPRPRPRPARIPRP | -0.0205 |
| RRIRIRPPRLPRPRPRPRHTPRP | -0.34 |
| RRIRCRPPRLPRPRPRPHYLPRP | -0.574 |
| RRIRVRPPRLPRPRPRPAIRPRP | 0.0362 |
| RRIRVRPPRLPRPRPRPITSPRP | -0.21 |
| RRIRIRPPRLPRPRPRPHGEPRP | -0.178 |
| RRIRTRPPRLPRPRPRPIYAPRP | 0.0866 |
| RRIRKRPPRLPRPRPRPVCSPRP | 0.0361 |
| RRIRPRPPRLPRPRPRPMTWPRP | -0.00489 |
| RRIRRRPPRLPRPRPRPARQPRP | -0.0115 |

| Sequence | shrunken log2 fold change |
| --- | --- |
| RRIRCRPPRLPRPRPRPLVNPRP | -0.841 |
| RRIRKRPPRLPRPRPRPPNPPRP | 0.657 |
| RRIRFRPPRLPRPRPRPMMPPRP | -0.0286 |
| RRIRSRPPRLPRPRPRPEVDPRP | 0.51 |
| RRIRQRPPRLPRPRPRPMITPRP | -0.166 |
| RRIRRRPPRLPRPRPRPLLHPRP | 0.295 |
| RRIRIRPPRLPRPRPRPTSEPRP | 0.00551 |
| RRIRNRPPRLPRPRPRPWAAPRP | -0.109 |
| RRIRSRPPRLPRPRPRPVAHPRP | -0.0951 |
| RRIRCRPPRLPRPRPRPHEDPRP | -0.157 |
| RRIRDRPPRLPRPRPRPWDNPRP | -0.00183 |
| RRIRYRPPRLPRPRPRPYKMPRP | -0.277 |
| RRIRFRPPRLPRPRPRPRHCPRP | -0.239 |
| RRIRYRPPRLPRPRPRPDWPPRP | -0.0212 |
| RRIRNRPPRLPRPRPRPEPEPRP | 0.0273 |
| RRIRMRPPRLPRPRPRPESNPRP | 0.102 |
| RRIRSRPPRLPRPRPRPVWGPRP | 0.185 |
| RRIRHRPPRLPRPRPRPIPCPRP | -0.0558 |
| RRIRRRPPRLPRPRPRPRGKPRP | 0.694 |
| RRIRTRPPRLPRPRPRPQMIPRP | -0.346 |

| Sequence | shrunken log2 fold change |
| --- | --- |
| RRIRLRPPRLPRPRPRPVCFPRP | -0.059 |
| RRIRARPPRLPRPRPRPIPTPRP | -0.0942 |
| RRIRSRPPRLPRPRPRPYIHPRP | -0.737 |
| RRIRLRPPRLPRPRPRPKPIPRP | 0.111 |
| RRIRMRPPRLPRPRPRPCLNPRP | -0.0184 |
| RRIRFRPPRLPRPRPRPFFGPRP | 0.0944 |
| RRIRVRPPRLPRPRPRPYGEPRP | -0.204 |
| RRIRERPPRLPRPRPRPLVSPRP | -0.055 |
| RRIRMRPPRLPRPRPRPEFIPRP | 0.01 |
| RRIRVRPPRLPRPRPRPDNIPRP | -0.714 |
| RRIRGRPPRLPRPRPRPKISPRP | 0.477 |
| RRIRLRPPRLPRPRPRPHDDPRP | -0.115 |
| RRIRVRPPRLPRPRPRPWCSPRP | -0.638 |
| RRIRCRPPRLPRPRPRPVQNPRP | -0.22 |
| RRIRIRPPRLPRPRPRPDQQPRP | 0.062 |
| RRIRERPPRLPRPRPRPQDGPRP | -0.113 |
| RRIRSRPPRLPRPRPRPFAQPRP | 0.185 |
| RRIRKRPPRLPRPRPRPETKPRP | 0.106 |
| RRIRKRPPRLPRPRPRPERFPRP | -0.0391 |
| RRIRPRPPRLPRPRPRPCHFPRP | -0.265 |
